{"source": "patent US20260184748A1", "about": "(University of Pennsylvania, published 2026)", "assay_in_all_cases": "cell-based or functional assay", "key": {"HTR1F": {"molecular_target": "T1, HTR1F (UniProt P30939 1-366)", "T1 sequence (looked up)": "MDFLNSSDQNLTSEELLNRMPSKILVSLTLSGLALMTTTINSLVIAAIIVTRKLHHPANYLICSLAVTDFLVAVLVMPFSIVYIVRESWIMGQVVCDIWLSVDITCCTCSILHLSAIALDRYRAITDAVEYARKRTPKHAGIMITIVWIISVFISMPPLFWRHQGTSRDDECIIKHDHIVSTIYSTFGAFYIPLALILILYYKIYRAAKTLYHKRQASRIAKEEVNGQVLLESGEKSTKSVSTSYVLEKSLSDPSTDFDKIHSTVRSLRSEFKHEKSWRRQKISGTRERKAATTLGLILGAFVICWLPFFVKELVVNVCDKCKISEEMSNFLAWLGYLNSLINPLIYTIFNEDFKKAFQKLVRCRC"}, "GRPR": {"molecular_target": "GRPR (UniProt P30550 1-384)", "sequence (P30550 whole entry)": "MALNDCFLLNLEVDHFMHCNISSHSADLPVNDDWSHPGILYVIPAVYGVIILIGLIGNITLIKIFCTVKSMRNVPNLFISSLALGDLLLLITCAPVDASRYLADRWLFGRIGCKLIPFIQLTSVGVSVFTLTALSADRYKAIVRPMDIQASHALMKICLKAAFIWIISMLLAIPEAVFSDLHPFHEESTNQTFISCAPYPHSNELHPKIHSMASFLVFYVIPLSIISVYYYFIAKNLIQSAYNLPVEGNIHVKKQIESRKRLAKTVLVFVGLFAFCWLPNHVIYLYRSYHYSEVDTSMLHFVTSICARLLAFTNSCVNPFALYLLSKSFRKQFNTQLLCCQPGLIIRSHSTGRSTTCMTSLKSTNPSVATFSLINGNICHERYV"}, "CRHR1": {"molecular_target": "T2, CRHR1 (UniProt P34998 24-415, limits assumed)", "T2 sequence (looked up)": "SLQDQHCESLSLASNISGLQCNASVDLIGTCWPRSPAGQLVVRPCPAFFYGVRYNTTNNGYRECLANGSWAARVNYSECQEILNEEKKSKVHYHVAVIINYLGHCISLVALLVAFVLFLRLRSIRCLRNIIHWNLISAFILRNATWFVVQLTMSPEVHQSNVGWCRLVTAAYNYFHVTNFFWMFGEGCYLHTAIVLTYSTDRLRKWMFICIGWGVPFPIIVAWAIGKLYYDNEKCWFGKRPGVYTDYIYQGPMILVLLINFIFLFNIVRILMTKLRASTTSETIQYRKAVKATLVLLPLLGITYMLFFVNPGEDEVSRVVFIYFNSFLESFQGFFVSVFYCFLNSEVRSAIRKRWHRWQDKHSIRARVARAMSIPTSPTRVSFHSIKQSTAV"}, "PTGER3": {"molecular_target": "T3, PTGER3 (UniProt P43115 1-390, limits assumed)", "T3 sequence (looked up)": "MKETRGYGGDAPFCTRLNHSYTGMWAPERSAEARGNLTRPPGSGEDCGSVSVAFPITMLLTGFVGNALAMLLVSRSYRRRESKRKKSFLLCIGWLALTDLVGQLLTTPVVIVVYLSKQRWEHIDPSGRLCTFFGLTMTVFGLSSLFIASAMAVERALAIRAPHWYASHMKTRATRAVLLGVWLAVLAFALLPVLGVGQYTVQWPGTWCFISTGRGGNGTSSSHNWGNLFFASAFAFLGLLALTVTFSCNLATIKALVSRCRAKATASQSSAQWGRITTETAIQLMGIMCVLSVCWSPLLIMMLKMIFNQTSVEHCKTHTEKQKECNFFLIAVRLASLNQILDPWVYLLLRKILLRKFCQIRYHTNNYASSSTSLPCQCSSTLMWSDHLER"}, "EDNRB": {"molecular_target": "T4, EDNRB (UniProt P24530 27-442)", "T4 sequence (looked up)": "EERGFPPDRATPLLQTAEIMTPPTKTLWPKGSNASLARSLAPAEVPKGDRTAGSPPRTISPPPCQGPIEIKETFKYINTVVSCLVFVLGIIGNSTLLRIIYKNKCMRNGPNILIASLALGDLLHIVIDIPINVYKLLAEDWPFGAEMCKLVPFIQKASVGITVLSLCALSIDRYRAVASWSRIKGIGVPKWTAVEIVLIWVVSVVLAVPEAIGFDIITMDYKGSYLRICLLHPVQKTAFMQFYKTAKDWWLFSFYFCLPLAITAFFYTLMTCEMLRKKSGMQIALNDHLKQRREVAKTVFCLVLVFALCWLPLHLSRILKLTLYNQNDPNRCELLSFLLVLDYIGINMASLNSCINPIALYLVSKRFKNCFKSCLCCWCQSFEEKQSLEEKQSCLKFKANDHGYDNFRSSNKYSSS"}, "LTB4R": {"molecular_target": "LTB4R (UniProt Q15722 1-352)", "sequence (Q15722 whole entry)": "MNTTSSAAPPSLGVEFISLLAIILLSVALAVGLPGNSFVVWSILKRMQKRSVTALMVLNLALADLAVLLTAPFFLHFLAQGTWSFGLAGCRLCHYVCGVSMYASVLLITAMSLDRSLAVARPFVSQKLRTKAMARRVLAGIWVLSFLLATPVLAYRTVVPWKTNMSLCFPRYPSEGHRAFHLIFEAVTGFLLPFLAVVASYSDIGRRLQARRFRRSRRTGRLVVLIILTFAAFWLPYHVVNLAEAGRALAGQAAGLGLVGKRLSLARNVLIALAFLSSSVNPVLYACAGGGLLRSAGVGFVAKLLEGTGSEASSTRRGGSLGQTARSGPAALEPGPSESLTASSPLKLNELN"}, "DRD3": {"molecular_target": "DRD3 (UniProt P35462 1-400)", "sequence (P35462 whole entry)": "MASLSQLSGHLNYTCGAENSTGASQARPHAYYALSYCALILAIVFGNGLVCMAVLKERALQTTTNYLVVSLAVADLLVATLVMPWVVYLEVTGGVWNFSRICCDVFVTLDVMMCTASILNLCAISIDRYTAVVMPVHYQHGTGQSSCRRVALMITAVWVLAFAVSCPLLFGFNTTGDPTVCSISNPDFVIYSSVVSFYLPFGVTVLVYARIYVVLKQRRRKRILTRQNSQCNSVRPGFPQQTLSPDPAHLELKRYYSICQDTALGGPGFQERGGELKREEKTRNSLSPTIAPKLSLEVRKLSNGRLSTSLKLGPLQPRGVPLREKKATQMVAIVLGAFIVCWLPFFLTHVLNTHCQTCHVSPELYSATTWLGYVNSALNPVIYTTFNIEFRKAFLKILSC"}, "P2RY1": {"molecular_target": "P2RY1 (UniProt P47900 1-373)", "sequence (P47900 whole entry)": "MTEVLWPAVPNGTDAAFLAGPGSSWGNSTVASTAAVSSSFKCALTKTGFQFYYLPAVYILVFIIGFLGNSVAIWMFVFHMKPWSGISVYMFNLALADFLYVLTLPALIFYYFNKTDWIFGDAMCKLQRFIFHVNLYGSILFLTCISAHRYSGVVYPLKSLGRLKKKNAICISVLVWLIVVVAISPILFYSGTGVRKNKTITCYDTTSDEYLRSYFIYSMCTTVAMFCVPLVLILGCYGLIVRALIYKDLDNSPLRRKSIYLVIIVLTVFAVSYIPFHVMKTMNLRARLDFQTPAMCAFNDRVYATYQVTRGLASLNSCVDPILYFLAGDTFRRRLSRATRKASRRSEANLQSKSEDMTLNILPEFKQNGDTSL"}, "MTNR1A": {"molecular_target": "MTNR1A (UniProt P48039 1-350)", "sequence (P48039 whole entry)": "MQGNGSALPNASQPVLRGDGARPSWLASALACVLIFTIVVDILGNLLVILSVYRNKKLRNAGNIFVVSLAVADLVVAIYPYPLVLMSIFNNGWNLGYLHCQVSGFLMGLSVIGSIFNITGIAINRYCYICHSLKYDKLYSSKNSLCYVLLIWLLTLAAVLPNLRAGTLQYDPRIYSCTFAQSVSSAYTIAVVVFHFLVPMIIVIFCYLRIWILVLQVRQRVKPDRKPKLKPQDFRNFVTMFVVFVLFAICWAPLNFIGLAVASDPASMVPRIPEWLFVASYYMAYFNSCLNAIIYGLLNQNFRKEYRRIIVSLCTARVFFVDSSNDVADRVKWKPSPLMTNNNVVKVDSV"}, "CCR7": {"molecular_target": "T5, CCR7 (UniProt P32248 25-378)", "T5 sequence (looked up)": "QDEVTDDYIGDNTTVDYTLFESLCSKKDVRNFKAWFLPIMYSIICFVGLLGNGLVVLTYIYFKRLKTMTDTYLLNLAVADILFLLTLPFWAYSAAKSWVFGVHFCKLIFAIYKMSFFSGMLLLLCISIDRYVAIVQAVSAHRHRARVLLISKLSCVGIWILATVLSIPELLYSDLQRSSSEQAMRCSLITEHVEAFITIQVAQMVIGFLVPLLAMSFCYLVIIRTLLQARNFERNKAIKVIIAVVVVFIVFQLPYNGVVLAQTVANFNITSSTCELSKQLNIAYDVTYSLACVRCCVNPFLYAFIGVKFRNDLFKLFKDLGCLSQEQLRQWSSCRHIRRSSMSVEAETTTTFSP"}, "SSTR5": {"molecular_target": "SSTR5 (UniProt P35346 1-364)", "sequence (P35346 whole entry)": "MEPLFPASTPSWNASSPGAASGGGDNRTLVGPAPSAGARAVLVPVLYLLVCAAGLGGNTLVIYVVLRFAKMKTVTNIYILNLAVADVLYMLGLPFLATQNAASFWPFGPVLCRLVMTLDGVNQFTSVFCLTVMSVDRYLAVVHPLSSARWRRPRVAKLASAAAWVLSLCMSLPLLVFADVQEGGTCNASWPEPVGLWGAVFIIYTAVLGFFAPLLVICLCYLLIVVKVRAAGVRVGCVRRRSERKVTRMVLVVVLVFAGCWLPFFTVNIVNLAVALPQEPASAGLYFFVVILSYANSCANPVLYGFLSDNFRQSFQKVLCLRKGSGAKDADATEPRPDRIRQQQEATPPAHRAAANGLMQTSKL"}, "CRHR2": {"molecular_target": "T6, CRHR2 (UniProt Q13324 1-411, limits assumed)", "T6 sequence (looked up)": "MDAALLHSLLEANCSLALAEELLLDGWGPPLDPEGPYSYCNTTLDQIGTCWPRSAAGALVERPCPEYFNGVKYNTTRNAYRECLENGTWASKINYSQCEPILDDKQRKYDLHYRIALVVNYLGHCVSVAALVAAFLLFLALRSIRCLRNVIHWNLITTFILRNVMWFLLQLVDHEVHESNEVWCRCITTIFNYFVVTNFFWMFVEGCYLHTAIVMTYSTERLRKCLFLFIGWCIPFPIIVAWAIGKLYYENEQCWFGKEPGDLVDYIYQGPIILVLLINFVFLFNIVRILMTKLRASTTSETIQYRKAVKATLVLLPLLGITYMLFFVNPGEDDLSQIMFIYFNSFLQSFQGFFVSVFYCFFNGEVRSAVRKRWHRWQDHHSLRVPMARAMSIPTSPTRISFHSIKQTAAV"}}, "note": "Where no end group is shown, it is not given here."}
{"binder": "QATVGDVNTDRPGLLDLK (also: synthesised on Rink amide resin, C-terminal amide not given here outright)", "note": "[octadecaneuropeptide (ODN)]", "values": [{"measurement": "% Activity, arrestin, antagonist mode, 2.5 uM", "setting": "HTR1F", "result": -23.3, "unit": "%"}, {"measurement": "% Activity, arrestin, antagonist mode, 2.5 uM", "setting": "GRPR", "result": -12.2, "unit": "%"}, {"measurement": "% Activity, arrestin, antagonist mode, 2.5 uM", "setting": "CRHR1", "result": 5.4, "unit": "%"}, {"measurement": "% Activity, arrestin, antagonist mode, 2.5 uM", "setting": "PTGER3", "result": -10, "unit": "%"}, {"measurement": "% Activity, arrestin, antagonist mode, 2.5 uM", "setting": "EDNRB", "result": -9.9, "unit": "%"}, {"measurement": "% Activity, arrestin, antagonist mode, 2.5 uM", "setting": "LTB4R", "result": 10.3, "unit": "%"}, {"measurement": "% Activity, arrestin, antagonist mode, 2.5 uM", "setting": "DRD3", "result": -1, "unit": "%"}, {"measurement": "% Activity, arrestin, antagonist mode, 2.5 uM", "setting": "P2RY1", "result": -6.4, "unit": "%"}, {"measurement": "% Activity, arrestin, antagonist mode, 2.5 uM", "setting": "MTNR1A", "result": 2.2, "unit": "%"}, {"measurement": "% Activity, arrestin, antagonist mode, 2.5 uM", "setting": "CCR7", "result": -19.2, "unit": "%"}, {"measurement": "% Activity, arrestin, antagonist mode, 2.5 uM", "setting": "SSTR5", "result": -17.3, "unit": "%"}, {"measurement": "% Activity, arrestin, antagonist mode, 2.5 uM", "setting": "CRHR2", "result": -8.6, "unit": "%"}]}
